Test results: US20080181891A1 (Pfizer, published 2008)

Experiments:
[1] = molecular target: T1, human insulin-like growth factor I receptor (IGF-IR) (human, UniProt P08069 31-1367); test: cell-based or functional assay
[2] = molecular target: T1, human insulin-like growth factor I …; test: competition with [125I]-IGF-I for binding to IGF-IR-transfected NIH-3T3 cells, scintillation counting
Experimental: […] experiments were performed to quantitate the ability of the antibody of the invention to inhibit IGF-I binding to IGF-IR in a cell-based assay. IGF-IR-transfected NIH-3T3 cells (5×10⁴/ml) were plated in 100 μl of DMEM high glucose media supplemented with L-glutamine (0.29 mg/ml), 10% heat-inactivated FBS, and 500 μg/ml each of geneticin, penicillin and streptomycin in 96-well U-bottom plates. The plates were incubated at 37° C., 5% CO₂ overnight to allow cells to attach. The media was decanted from the plates and replaced with 100 μl fresh media per well. For testing, the antibody was diluted in assay media (DMEM high glucose media supplemented with L-glutamine, 10% heat-inactivated FBS, 200 μg/ml BSA and 500 μg/ml each of geneticin, penicillin and streptomycin) to the desired final concentration. All samples were performed in triplicate. The plates were incubated at 37° C. for ten minutes. The [¹²⁵I]-IGF-I was diluted to a concentration of 1 μCi/ml in assay media and added 50 μl per well of the plate. As a control for background radioactivity, cold IGF-I was added to a final concentration of 100 ng/ml. […] The samples were transferred to a scintillation plate, 150 μl OptiPhase Supermix was added and the signal was read using a Wallace MicroBeta counter. […]

[3] = molecular target: T1, human insulin-like growth factor I …; test: flow cytometry, biotinylated antibody on human cells (MCF-7), half maximal binding
Experimental: (§1) FACS analysis was performed to determine the affinity of the antibody of the invention for IGF-IR from other animals, particularly the old world monkeys described above. Aliquots of human and monkey cells (cynomolgus) (5×10⁵) were incubated for 1 hour on ice with increasing concentrations of biotinylated anti-IGF-IR antibodies of the invention. The samples were incubated for 30 minutes on ice with streptavidin-conjugated RPE (phycoerythrin). Binding was measured by flow cytometry and analyzed with the histograms of fluorescence intensity (FI2-H) versus cell number (Counts) using CellQuest software. Binding (Kd) was calculated for each antibody from graphs of mean fluorescence intensity versus antibody concentration. In most experiments, binding was measured in cultured human MCF-7 cells and cynomolgus tissue culture cells. Depletion of the antibody was controlled by measuring binding over a range of cell concentrations.

mouse IGF-IR = molecular target: T2, mouse IGF-IR (mouse, UniProt Q60751 31-1373); test: cells treated with antibody, IGF-I stimulation, immunoprecipitation of IGF-IR and Western blot
T2 construct: whole, on cells
T2 sequence (Q60751 31-1373): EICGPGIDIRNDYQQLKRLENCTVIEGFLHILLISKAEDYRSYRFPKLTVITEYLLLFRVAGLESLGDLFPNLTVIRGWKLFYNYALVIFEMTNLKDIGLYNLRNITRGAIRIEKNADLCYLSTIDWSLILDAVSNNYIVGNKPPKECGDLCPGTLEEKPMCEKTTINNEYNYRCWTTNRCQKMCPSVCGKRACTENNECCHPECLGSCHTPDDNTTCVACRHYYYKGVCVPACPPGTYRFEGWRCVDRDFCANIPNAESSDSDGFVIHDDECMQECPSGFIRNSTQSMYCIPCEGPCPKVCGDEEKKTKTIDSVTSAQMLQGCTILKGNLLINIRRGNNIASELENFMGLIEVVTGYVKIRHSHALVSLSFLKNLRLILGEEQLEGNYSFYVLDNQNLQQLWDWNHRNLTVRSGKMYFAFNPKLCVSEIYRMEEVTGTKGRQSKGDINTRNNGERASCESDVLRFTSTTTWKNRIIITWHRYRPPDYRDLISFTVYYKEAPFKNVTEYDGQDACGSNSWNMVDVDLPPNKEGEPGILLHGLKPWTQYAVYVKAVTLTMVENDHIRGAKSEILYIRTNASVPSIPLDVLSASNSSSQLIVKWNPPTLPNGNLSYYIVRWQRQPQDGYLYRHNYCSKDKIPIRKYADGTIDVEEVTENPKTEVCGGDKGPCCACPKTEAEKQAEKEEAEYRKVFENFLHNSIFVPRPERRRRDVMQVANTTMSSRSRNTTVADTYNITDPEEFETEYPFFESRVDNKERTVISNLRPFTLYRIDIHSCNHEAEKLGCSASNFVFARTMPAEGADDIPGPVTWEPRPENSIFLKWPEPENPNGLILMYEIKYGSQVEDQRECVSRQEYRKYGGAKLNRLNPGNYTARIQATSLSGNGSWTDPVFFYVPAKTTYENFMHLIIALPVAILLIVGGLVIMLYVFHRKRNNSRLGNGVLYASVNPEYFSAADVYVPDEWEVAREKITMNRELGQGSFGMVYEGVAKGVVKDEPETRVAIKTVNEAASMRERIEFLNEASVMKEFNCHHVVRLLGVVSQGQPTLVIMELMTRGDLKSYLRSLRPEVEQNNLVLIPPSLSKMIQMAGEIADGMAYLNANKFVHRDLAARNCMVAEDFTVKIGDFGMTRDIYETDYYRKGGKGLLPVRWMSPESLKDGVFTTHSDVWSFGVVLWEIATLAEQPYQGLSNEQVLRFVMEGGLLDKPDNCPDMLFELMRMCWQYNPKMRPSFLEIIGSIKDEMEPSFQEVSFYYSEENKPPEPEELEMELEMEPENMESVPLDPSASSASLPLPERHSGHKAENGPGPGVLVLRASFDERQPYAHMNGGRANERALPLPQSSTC
Experimental: To perform immunoprecipitation experiments, cells were plated in DMEM high glucose media supplemented with L-glutamine (0.29 mg/ml), 10% heat-inactivated FBS, and 500 μg/ml each of geneticin, penicillin and streptomycin to 50% confluence in T25 flasks. 100 μl of an antibody of the invention in Hank's buffered saline solution (HBSS; Gibco BRL) at a concentration of 1 μg/ml was added. The plates were incubated for 30 minutes at 37° C. in an incubator and then stimulated cells with IGF-I at 100 ng/ml for 10 minutes at room temperature. The cells were lysed in RIPA buffer (Harlow and Lane, supra) and immunoprecipitated the IGF-IR with 2 μg of pan-specific SC-713 anti-IGF-IR antibody (Santa Cruz) plus protein A agarose beads for 1 hour at 4° C. The beads were pelleted and washed three times with PBS/T (PBS+0.1% Tween-20) and then boiled in 40 μl Laemmli buffer containing 5% ME.
The samples prepared as described above were then analyzed by Western blot. 12 μl of each sample were loaded per lane on 4-10% gradient Novex™ gels run with 1×MES buffer (Novex™). Gels were run at 150V for 1 hour or at 200V for approximately 30 minutes. The gel was transferred to a membrane in Novex™ transfer buffer with 10% methanol either overnight at 100 mA or for 1-1.5 hours at 250 mA. […]

cynomolgus monkey IGF-IR = molecular target: T3, cynomolgus monkey IGF-IR (cynomolgus monkey, UniProt G7P9I7 31-1343); test: flow cytometry, biotinylated antibody on cynomolgus tissue culture cells, half maximal binding
T3 construct: whole, on cells; also called IGF-IR on cynomolgus tissue culture cells
T3 sequence (G7P9I7 entry or part of it): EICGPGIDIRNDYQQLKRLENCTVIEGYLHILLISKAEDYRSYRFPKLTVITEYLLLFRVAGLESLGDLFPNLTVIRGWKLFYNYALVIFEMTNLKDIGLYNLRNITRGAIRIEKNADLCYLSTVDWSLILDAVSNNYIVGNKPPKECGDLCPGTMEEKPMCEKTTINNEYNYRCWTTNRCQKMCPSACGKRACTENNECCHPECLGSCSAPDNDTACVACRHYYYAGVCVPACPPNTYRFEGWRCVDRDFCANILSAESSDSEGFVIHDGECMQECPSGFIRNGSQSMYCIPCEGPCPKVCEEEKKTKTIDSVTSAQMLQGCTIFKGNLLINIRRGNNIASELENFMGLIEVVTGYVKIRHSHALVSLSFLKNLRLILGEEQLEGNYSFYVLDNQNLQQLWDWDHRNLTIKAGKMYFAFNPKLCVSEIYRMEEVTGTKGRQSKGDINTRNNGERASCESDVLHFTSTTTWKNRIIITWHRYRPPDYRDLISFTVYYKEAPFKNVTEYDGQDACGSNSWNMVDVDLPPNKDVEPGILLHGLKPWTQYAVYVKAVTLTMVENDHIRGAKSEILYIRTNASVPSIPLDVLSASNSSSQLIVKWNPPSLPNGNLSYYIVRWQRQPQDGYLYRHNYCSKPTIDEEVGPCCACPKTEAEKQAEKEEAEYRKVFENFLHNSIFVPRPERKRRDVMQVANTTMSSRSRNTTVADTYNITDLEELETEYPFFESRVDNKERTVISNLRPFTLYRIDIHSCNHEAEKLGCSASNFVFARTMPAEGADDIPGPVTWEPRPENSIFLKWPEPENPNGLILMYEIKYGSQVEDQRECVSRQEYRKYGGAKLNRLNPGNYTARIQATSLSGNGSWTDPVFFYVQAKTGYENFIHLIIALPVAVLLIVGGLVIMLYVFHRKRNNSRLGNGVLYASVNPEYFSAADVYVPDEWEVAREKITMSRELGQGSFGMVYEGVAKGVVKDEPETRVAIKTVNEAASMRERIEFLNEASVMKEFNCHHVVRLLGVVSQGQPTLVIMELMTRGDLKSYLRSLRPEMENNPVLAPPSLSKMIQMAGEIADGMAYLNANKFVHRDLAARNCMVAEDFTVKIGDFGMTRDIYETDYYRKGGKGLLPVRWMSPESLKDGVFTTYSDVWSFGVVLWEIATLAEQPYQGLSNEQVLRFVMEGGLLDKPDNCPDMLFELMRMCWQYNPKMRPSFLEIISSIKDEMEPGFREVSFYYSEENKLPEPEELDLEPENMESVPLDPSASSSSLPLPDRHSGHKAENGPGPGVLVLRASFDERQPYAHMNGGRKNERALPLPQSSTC
Experimental: as §1

T1 sequence (P08069 31-1367): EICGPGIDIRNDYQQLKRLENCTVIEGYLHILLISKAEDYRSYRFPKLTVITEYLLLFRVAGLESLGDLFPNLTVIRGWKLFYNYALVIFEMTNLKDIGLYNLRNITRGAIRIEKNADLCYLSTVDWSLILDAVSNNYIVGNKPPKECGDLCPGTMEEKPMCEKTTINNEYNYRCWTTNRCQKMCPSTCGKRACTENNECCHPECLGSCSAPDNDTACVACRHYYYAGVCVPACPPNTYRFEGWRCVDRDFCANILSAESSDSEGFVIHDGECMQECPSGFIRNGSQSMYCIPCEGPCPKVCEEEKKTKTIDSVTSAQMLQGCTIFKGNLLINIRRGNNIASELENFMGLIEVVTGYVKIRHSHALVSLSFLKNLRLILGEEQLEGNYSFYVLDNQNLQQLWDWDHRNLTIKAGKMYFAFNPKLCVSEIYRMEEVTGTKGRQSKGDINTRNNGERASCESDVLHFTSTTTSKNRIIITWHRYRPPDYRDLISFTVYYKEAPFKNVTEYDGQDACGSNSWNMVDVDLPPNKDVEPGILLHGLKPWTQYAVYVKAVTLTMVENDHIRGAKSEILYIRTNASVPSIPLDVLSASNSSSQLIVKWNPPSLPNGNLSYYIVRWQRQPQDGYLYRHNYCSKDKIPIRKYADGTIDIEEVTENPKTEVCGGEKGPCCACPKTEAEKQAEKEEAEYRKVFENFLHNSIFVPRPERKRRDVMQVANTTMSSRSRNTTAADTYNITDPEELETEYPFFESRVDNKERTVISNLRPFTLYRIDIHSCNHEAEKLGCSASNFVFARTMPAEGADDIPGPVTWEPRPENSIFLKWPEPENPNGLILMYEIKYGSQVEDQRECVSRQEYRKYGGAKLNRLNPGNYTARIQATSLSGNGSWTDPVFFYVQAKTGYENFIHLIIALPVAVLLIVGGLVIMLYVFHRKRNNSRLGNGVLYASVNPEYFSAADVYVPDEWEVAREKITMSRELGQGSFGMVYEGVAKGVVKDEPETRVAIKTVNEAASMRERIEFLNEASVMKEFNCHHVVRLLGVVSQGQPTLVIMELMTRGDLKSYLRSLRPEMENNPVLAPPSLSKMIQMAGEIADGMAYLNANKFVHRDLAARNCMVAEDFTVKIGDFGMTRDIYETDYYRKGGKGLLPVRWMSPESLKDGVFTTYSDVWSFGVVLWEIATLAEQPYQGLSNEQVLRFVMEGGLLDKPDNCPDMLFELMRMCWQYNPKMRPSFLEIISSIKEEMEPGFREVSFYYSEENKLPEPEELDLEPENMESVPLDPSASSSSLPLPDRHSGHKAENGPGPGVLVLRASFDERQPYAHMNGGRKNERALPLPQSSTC

- IC50 of inhibition of IGF-I-induced tyrosine phosphorylation of IGF-IR (ELISA on lysates of IGF-IR-transfected NIH-3T3 cells) [1]: 0.42 µg/mL
- IC50 [2]: 0.4 µg/mL
- Kd [3]: 0.1 µg/mL
- binding result (mouse IGF-IR): no binding (tested: 1 µg/ml)
- Kd (cynomolgus monkey IGF-IR): 0.1 µg/mL
B1: anti-IGF-IR antibody 2.12.1fx (antibody, human IgG2, kappa, V domains shown)
VH: QVQLVESGGGLVKPGGSLRLSCAASGFTFSDYYMSWIRQAPGKGLEWVSYISSSGSTRDYADSVKGRFTISRDNAKNSLYLQMNSLRAEDTAVYYCARDGVETTFYYYYYGMDVWGQGTTVTVSS
VL: DIQMTQSPSSLSASVGDRVTITCRASQDIRRDLGWYQQKPGKAPKRLIYAASRLQSGVPSRFSGSGSGTEFTLTISSLQPEDFATYYCLQHNNYPRTFGQGTKVEIKR
notes: also called the antibody of the invention; the antibody of this invention
